According to publication PMC4336609:

Target: 14-3-3β (UniProt P31946)
Test: GST-14-3-3β pull-down from cell lysate
Details: reference: wild type; sites T181

XLF (from UniProt Q9H9Q4) T181A
binding against the reference: lost
